Data published in patent US20220162322A1.

Molecular target: BDCA-2 (CLEC4C, CD303) on human plasmacytoid dendritic cells (purified pDC or pDC within PBMC) (human) (UniProt Q8WTT0)
Assay: cell-based or functional assay

Chain of BDCA-2 (CLEC4C, CD303) on human plasmacytoid dendritic cells (purified pDC or pDC within PBMC) (human) (Q8WTT0 whole entry): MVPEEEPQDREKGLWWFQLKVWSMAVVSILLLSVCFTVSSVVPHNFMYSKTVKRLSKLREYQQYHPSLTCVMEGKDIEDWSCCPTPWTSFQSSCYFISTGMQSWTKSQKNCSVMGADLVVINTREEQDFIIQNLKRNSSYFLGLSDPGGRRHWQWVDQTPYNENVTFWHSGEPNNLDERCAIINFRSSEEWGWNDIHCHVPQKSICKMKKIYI

- IC50, nM; inhibition of IFNα from ODN stimulated healthy donor PBMC: 0.85 nM
- IC50, ng/ml; inhibition of IFNα from ODN stimulated healthy donor PBMC: 128 ng/mL
- IC90, nM; inhibition of IFNα from ODN stimulated healthy donor PBMC: 7.68 nM
- IC90, ng/ml; inhibition of IFNα from ODN stimulated healthy donor PBMC: 1150 ng/mL
B1: anti-BDCA-2 mAb BIIB059 (from patent WO2014093396) (antibody, INN chains, looked up, V domains shown)
VH: DVQLVESGGGLVKPGGSLRLSCAASGFTFSTYTMSWVRQAPGKGLEWVATISPGDSFGYYYPDSVQGRFTISRDNAKNSLYLQMNSLRAEDTAVYYCTRDIYYNYGAWFAYWGQGTLVTVSS
VL: DIQLTQSPSSLSASVGDRVTITCKASQSVDYDGDSYMNWYQQKPGKAPKLLIYAASTLESGVPSRFSGSGSGTDFTLTISSLQPEDFATYYCQQANEDPRTFGQGTKVEIK
